From patent publication US11141452 (dated 2021)
Non-standard residues stand in square brackets, D forms with d. No end group written: not given here. *: point of attachment. NH(3,5-(CF3)2-benzyl) = FC(F)(F)c1cc(CN*)cc(C(F)(F)F)c1; Phe(4-F) = N[C@@H](Cc1ccc(F)cc1)C(=O)O; Dmt = Cc1cc(O)cc(C)c1C[C@H](N)C(=O)O; NMeF = CN[C@@H](Cc1ccccc1)C(=O)O; hSer = N[C@@H](CCO)C(=O)O; Orn = NCCC[C@H](N)C(=O)O; Dab = NCC[C@H](N)C(=O)O; Dap = NC[C@H](N)C(=O)O; NHBn = c1ccc(CN*)cc1

Biological target: mu opioid receptor (MOR) (UniProt P35372)
Assay: competition

mu opioid receptor (MOR), sequence (P35372 whole entry): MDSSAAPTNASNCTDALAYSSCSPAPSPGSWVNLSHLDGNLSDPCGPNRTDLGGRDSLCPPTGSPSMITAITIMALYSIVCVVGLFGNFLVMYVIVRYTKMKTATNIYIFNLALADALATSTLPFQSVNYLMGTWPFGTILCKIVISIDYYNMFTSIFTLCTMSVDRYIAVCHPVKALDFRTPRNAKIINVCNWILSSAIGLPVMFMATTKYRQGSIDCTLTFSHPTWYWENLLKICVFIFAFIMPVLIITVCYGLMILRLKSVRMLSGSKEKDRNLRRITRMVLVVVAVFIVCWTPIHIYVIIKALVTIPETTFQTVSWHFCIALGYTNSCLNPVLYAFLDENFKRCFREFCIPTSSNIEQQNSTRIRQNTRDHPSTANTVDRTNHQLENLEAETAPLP

Binder	Ki [nM]
XAGFPLW (Dmt1, D-Ala2, NMePhe(4-F)4; C-terminal NH-Bn(3',5'-(CF3)2)) [AKG128]	1
Y[dA]G[Phe(4-F)]PLW-{NH(3,5-(CF3)2-benzyl)} [AKG190]	4
XAGFPLW (Dmt1, D-Ala2, Phe(4-Cl)4; C-terminal NH-Bn(3',5'-(CF3)2)) [AKG191]	2
Y[dA]GFPLW-{NH(3,5-(CF3)2-benzyl)} [TY012]	9.5
XAGFPLW (Dmt1, D-Ala2, Phe(4-I)4; C-terminal NH-Bn(3',5'-(CF3)2)) [AKG193]	6
XAGFPLW (Dmt1, D-Ala2, NMePhe4; C-terminal NH-Bn(3',5'-(CF3)2)) [AKG115]	1
XAGFPLW (Dmt1, D-Ala2, Phe(4-Br)4; C-terminal NH-Bn(3',5'-(CF3)2)) [AKG192]	5

Biological target: T1, delta opioid receptor (DOR) (UniProt P41143)
T1 chain: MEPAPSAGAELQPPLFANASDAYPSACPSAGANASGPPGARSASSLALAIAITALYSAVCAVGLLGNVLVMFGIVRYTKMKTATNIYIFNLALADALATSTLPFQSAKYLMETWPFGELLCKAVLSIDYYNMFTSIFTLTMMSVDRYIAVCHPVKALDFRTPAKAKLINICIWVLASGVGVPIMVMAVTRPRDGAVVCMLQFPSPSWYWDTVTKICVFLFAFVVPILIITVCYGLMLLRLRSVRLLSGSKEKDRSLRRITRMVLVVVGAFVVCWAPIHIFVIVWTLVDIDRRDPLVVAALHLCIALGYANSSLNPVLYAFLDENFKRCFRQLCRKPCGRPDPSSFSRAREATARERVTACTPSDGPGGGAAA
Assay: competition

Binder	Ki [nM]
[Dmt][dA]G[NMeF]SPLW-NHBn [AKG132]	2
Y[dA]GF[dS]PLW-NHBn [AKG101]	34
Y[dA]G[NMeF]SPLW-NHBn [AKG126]	63
Y[dA]G[NMeF][Dap]PLW-NHBn [AKG171]	33
Y[dA]G[NMeF][Dab]PLW-NHBn [AKG172]	100
Y[dA]GFSPLW (not fully specified (C-terminus)) [AKG038]	7
Y[dA]G[NMeF][Orn]PLW (not fully specified (C-terminus)) [AKG173]	0.05
Y[dA]GF[hSer]PLW-NHBn [AKG039]	6

Biological target: T1, delta opioid receptor (DOR)
Assay: competition
Remark: another data set of the same source

Binder	Ki [nM]
Y[dA]G[Phe(4-F)]PLW-{NH(3,5-(CF3)2-benzyl)} [AKG190]	0.2
XAGFPLW (Dmt1, D-Ala2, Phe(4-Cl)4; C-terminal NH-Bn(3',5'-(CF3)2)) [AKG191]	5
XAGFPLW (Dmt1, D-Ala2, NMePhe4; C-terminal NH-Bn(3',5'-(CF3)2)) [AKG115]	5

Biological target: T2, human NK1 receptor (human, UniProt P25103)
T2 chain: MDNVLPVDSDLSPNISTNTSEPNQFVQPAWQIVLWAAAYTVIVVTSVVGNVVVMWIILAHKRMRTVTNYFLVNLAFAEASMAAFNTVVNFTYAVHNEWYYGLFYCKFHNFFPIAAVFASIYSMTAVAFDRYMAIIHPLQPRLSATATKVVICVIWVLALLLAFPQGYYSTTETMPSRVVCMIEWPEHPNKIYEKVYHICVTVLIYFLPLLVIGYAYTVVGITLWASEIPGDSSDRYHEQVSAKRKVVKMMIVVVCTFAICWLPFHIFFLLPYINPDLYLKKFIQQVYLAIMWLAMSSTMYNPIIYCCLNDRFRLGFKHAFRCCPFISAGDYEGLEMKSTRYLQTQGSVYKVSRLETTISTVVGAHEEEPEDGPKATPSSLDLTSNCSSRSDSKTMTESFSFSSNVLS
Assay: competition

Binder	Ki [nM]
XAGFPLW (Dmt1, D-Ala2, NMePhe(4-F)4; C-terminal NH-Bn(3',5'-(CF3)2)) [AKG128]	2.62
Y[dA]G[Phe(4-F)]PLW-{NH(3,5-(CF3)2-benzyl)} [AKG190]	5.61
XAGFPLW (Dmt1, D-NMeAla2, NMeGly3, NMePhe4; C-terminal NH-Bn(3',5'-(CF3)2)) [AKG185]	3.47
XAGFPLW (Dmt1, D-NMeAla2; C-terminal NH-Bn(3',5'-(CF3)2)) [AKG181]	4.81
Y[dA]GFPLW-{NH(3,5-(CF3)2-benzyl)} [TY012]	0.6
XAGFPLW (Dmt1, D-Ala2, Phe(4-Br)4; C-terminal NH-Bn(3',5'-(CF3)2)) [AKG192]	2.54

Biological target: T3, rat NK1 receptor (rat, UniProt P14600)
T3 chain: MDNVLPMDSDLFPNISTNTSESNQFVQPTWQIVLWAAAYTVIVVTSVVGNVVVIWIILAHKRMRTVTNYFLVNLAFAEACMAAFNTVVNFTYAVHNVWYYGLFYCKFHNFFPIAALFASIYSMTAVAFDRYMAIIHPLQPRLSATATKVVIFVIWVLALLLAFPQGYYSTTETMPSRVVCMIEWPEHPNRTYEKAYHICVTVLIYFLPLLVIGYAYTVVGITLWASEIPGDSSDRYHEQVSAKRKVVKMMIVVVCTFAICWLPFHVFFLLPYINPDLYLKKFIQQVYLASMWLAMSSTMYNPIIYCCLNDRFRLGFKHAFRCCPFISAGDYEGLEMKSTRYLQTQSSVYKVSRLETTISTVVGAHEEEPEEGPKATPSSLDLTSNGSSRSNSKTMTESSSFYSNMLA
Assay: competition

Binder	Ki [nM]
[Dmt][dA]G[NMeF]SPLW-NHBn [AKG132]	31.1
Y[dA]GF[dS]PLW-NHBn [AKG101]	108
Y[dA]G[NMeF]SPLW-NHBn [AKG126]	31.5
Y[dA]G[NMeF][Dap]PLW-NHBn [AKG171]	8.59
Y[dA]G[NMeF][Dab]PLW-NHBn [AKG172]	8.24
Y[dA]GFSPLW (not fully specified (C-terminus)) [AKG038]	206
Y[dA]G[NMeF][Orn]PLW (not fully specified (C-terminus)) [AKG173]	65.2
Y[dA]GF[hSer]PLW-NHBn [AKG039]	148

Biological target: mu opioid receptor (MOR) (UniProt P35372)
Assay: competition
Remark: another data set of the same source

Binder	Ki [nM]
[Dmt][dA]G[NMeF]SPLW-NHBn [AKG132]	0.4
Y[dA]GF[dS]PLW-NHBn [AKG101]	196
Y[dA]G[NMeF]SPLW-NHBn [AKG126]	2
Y[dA]G[NMeF][Dap]PLW-NHBn [AKG171]	3
Y[dA]G[NMeF][Dab]PLW-NHBn [AKG172]	8
Y[dA]GFSPLW (not fully specified (C-terminus)) [AKG038]	127
Y[dA]G[NMeF][Orn]PLW (not fully specified (C-terminus)) [AKG173]	5
Y[dA]GF[hSer]PLW-NHBn [AKG039]	116

Biological target: T2, human NK1 receptor
Assay: competition
Remark: another data set of the same source

Binder	Ki [nM]
[Dmt][dA]G[NMeF]SPLW-NHBn [AKG132]	5.61
Y[dA]GF[dS]PLW-NHBn [AKG101]	2.77
Y[dA]G[NMeF]SPLW-NHBn [AKG126]	0.86
Y[dA]G[NMeF][Dap]PLW-NHBn [AKG171]	2.98
Y[dA]G[NMeF][Dab]PLW-NHBn [AKG172]	3.05
Y[dA]GFSPLW (not fully specified (C-terminus)) [AKG038]	1.94
Y[dA]G[NMeF][Orn]PLW (not fully specified (C-terminus)) [AKG173]	15.5
Y[dA]GF[hSer]PLW-NHBn [AKG039]	1.32

Biological target: T3, rat NK1 receptor
Assay: competition
Remark: another data set of the same source

Binder	Ki [nM]
XAGFPLW (Dmt1, D-Ala2, NMePhe(4-F)4; C-terminal NH-Bn(3',5'-(CF3)2)) [AKG128]	33.8
Y[dA]G[Phe(4-F)]PLW-{NH(3,5-(CF3)2-benzyl)} [AKG190]	34.4
XAGFPLW (Dmt1, D-Ala2, Phe(4-Cl)4; C-terminal NH-Bn(3',5'-(CF3)2)) [AKG191]	26.5
XAGFPLW (Dmt1, D-NMeAla2, NMeGly3, NMePhe4; C-terminal NH-Bn(3',5'-(CF3)2)) [AKG185]	74.8
XAGFPLW (Dmt1, D-NMeAla2; C-terminal NH-Bn(3',5'-(CF3)2)) [AKG181]	26.4
Y[dA]GFPLW-{NH(3,5-(CF3)2-benzyl)} [TY012]	33
XAGFPLW (Dmt1, D-Ala2, NMePhe4; C-terminal NH-Bn(3',5'-(CF3)2)) [AKG115]	48.3
